The target of this assay is propionyl-CoA synthase (PCS) from Erythrobacter sp. NAP1 (Erythrobacter sp. NAP1). The experiment in a line: crystal structure.

The stoichiometry N is the number of molecules, sites or subunits per partner or assembly.

For the substance “propionyl-CoA synthase (PCS) from Erythrobacter sp. NAP1 (enzyme)”, the stoichiometry N amounted to 2.

For the origin of these results see PMC6499725.
